Paper PMC3361065 (Biochemistry, 2012)

Key:
Assay in all cases: EMSA
[1] = molecular target: T1, scMtRNAP ΔHNG (UniProt P13433 1-640+644-1351, internal_change)
T1 sequence: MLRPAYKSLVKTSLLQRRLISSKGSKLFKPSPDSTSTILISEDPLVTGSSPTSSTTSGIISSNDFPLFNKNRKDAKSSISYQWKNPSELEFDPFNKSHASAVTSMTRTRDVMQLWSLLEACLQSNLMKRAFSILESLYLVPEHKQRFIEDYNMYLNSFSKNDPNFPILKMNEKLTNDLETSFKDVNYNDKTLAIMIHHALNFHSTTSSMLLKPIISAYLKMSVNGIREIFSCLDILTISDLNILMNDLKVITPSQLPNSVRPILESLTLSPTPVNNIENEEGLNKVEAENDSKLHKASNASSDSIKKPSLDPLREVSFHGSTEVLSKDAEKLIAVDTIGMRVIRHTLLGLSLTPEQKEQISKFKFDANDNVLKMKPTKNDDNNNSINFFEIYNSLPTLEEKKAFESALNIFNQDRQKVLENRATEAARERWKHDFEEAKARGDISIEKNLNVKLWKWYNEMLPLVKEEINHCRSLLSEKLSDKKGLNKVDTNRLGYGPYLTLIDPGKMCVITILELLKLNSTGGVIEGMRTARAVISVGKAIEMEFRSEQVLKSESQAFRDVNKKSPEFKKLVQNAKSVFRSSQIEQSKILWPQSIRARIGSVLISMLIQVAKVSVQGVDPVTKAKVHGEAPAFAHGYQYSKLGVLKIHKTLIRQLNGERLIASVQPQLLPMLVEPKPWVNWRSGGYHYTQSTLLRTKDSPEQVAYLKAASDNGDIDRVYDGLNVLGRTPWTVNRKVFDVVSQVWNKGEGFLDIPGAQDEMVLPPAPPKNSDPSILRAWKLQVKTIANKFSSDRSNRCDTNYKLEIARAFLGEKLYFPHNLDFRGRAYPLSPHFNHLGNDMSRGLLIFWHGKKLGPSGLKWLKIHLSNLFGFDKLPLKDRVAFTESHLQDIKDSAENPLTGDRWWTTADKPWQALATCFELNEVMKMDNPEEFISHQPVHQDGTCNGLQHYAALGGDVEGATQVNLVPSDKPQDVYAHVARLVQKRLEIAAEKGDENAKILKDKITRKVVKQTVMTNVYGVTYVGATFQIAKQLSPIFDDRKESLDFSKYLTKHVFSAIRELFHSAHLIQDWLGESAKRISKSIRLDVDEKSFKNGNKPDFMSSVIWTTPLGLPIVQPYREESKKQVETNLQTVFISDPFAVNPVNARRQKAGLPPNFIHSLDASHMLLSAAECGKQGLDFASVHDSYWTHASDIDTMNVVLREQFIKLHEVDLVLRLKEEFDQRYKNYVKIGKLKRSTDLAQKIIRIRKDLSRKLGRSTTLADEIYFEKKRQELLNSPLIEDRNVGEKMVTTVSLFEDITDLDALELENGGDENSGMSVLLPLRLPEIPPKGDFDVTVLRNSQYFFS

[2] = molecular target: T2, yeast mitochondrial RNA polymerase (scMtRNAP) WT (UniProt P13433 1-1351)
T2 sequence: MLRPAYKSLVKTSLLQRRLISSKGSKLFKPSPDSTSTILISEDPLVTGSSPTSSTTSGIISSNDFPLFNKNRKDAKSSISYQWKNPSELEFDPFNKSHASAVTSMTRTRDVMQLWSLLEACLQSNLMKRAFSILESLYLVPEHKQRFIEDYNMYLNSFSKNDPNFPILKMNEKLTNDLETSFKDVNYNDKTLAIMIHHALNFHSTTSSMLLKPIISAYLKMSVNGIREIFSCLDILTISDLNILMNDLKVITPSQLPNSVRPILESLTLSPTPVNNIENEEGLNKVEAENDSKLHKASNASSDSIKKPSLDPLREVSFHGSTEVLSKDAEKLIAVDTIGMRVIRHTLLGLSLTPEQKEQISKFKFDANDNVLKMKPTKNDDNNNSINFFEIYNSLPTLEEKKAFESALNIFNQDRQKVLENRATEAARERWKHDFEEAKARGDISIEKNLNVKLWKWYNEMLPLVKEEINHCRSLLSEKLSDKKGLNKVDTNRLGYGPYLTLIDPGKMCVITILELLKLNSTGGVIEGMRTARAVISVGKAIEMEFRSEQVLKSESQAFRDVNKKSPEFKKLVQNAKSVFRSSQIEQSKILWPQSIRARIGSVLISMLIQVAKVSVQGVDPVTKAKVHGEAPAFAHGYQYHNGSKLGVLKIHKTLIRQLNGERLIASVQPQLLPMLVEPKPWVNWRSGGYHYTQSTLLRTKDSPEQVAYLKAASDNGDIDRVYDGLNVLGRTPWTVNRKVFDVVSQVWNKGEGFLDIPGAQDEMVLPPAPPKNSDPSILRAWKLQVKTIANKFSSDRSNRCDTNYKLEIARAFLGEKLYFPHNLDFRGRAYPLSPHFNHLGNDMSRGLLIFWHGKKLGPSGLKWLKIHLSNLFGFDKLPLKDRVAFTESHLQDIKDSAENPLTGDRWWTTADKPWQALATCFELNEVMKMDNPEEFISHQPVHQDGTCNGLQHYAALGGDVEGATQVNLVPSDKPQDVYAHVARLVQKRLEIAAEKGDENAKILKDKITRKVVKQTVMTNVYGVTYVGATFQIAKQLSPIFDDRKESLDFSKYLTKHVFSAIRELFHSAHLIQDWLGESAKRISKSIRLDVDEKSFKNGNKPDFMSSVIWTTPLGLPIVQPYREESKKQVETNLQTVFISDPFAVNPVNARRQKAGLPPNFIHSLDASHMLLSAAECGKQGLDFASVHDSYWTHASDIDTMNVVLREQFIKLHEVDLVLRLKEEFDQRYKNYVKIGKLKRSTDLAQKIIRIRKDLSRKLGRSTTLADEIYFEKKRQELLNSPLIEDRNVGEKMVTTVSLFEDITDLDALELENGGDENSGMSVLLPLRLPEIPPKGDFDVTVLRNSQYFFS

[3] = molecular target: yeast mitochondrial RNA polymerase (scMtRNAP) WT;MTF1 (yeast mitochondrial transcription factor) (Saccharomyces cerevisiae?;Saccharomyces …, UniProt P13433;P14908 1-1351;1-341, |)
[4] = molecular target: scMtRNAP ΔHNG;MTF1 (yeast mitochondrial transcription factor) (Saccharomyces cerevisiae?;Saccharomyces …, UniProt P13433;P14908 1-640+644-1351;1-341, internal_change|)
[5] = molecular target: scMtRNAP ΔNGS;MTF1 (yeast mitochondrial transcription factor) (Saccharomyces cerevisiae?;Saccharomyces …, UniProt P13433;P14908 1-641+645-1351;1-341, internal_change|)
Chain of scMtRNAP ΔNGS;MTF1 (yeast mitochondrial transcription factor) (P14908 whole entry, stated change not applied, one chain of several): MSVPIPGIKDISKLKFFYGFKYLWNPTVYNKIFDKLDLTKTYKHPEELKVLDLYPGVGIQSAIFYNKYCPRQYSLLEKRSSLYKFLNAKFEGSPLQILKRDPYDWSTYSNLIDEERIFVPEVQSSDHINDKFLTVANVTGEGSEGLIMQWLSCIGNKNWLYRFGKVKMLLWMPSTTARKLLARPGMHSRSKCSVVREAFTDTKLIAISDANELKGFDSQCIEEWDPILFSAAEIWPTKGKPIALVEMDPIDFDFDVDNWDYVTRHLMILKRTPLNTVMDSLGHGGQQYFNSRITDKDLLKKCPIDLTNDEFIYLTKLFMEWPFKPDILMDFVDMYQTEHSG

B1: 33 bp Bubble (pre-melted) promoter (dsDNA)
DNA 1: CGCGTAAAACTATTCTTTATTACTTATATCGCG
DNA 2: CGCGATATGCAGCTTAAAGAATAGTTTTACGCG
For B1, the Kd [1] was 5300 nM, the Kd [2] was 4300 nM and the Kd [3] was 160 nM. The Kd [4] was 340 nM and the Kd [5] was 430 nM.
